The values that follow come from patent publication US20240279325A1 (Chugai, published 2024).

Experiment [1] has as its target T1, FcγRIIb extracellular domain with C-terminal His tag (human, UniProt P31994 43-217).
T1 construct: extracellular domain
T1 sequence (looked up): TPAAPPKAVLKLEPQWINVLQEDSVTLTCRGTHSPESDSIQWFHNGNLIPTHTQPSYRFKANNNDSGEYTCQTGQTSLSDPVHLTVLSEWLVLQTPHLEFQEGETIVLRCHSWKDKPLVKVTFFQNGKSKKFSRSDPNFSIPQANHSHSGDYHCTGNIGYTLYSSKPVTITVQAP
Description: SPR; KD for FcγRIIaR divided by KD for FcγRIIb. On the technique in general: SPR reads the build-up and loss of mass on a sensor chip optically.

Experiment [2] deals with T2, FcγRIIa type R (allotype R131) extracellular domain with C-terminal His tag (human, UniProt P12318 34-217).
T2 construct: extracellular domain; also called FcγRIIaR; FcγRIIa R type
T2 sequence (looked up): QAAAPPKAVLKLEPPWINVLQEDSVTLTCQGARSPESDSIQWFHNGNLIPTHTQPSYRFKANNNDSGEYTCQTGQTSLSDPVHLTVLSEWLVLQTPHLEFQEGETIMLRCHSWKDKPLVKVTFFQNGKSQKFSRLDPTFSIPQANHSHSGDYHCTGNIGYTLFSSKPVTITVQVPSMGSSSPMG
Description: SPR; KD of IL6R-B3/IL6R-L divided by KD of the variant.

The target in experiment [3] is T1, FcγRIIb extracellular domain with …. The experiment is described as above.
Experiment [4] shares this target. As to the kind of experiment: SPR; KD for FcγRIIaH divided by KD for FcγRIIb.

Changes are numbered by the printed parent chain.

B1: IL6R-BP487/IL6R-L (antibody, human IgG1, kappa, name in EU numbering)
heavy: QVQLQESGPGLVKPSETLSLTCAVSGHSISHDHAWSWVRQPPGEGLEWIGFISYSGITNYNPSLQGRVTISRDNSKNTLYLQMNSLRAEDTAVYYCARSLARTTAMDYWGEGTLVTVSSASTKGPSVFPLAPSSKSTSGGTAALGCLVKDYFPEPVTVSWNSGALTSGVHTFPAVLQSSGLYSLSSVVTVPSSSLGTQTYICNVNHKPSNTKVDKKVEPKSCDKTHTCPPCPAPDLLGDDSVFLFPPKPKDTLMISRTPEVTCVVIDVAEEDGEVKFNWYVDGVEVHNAKTKPREEQYNSTYRVVSVLTVLHQDWLNGKEYKCKVSNKALPRPIEKTISKAKGQPREPQVYTLPPSRDELTKNQVSLTCLVKGFYPSDIAVEWESNGQPENNYKTTPMVLDSDGSFFLYSKLTVDKSRWQQGNVFSCSVMHEALHNHYTQESLSLSP
light: not shown
notes: copies: 2 + 2
For the molecule B1, the “KD(IIaR)/KD(IIb)” value in experiment [1] stood at 33.8. In addition, the “KD(IIaR) OF PARENT POLYPEPTIDE/KD(IIaR) OF ALTERED POLYPEPTIDE” value in experiment [2] was 28.3. Besides, in experiment [3], the “KD(IIb) OF PARENT POLYPEPTIDE/KD(IIb) OF ALTERED POLYPEPTIDE” value is 2700. In experiment [4], the “KD(IIaH)/KD(IIb)” value came out at 730.

B2: IL6R-BP498/IL6R-L (antibody, human IgG1, kappa, name in EU numbering)
heavy: B1 heavy with M398L
light: not shown
notes: copies: 2 + 2
On to B2, for which, in experiment [1], the “KD(IIaR)/KD(IIb)” value was 30.3. In experiment [2], the “KD(IIaR) OF PARENT POLYPEPTIDE/KD(IIaR) OF ALTERED POLYPEPTIDE” value came to 21.7. Moreover, in experiment [3], the “KD(IIb) OF PARENT POLYPEPTIDE/KD(IIb) OF ALTERED POLYPEPTIDE” value was found to be 1880. The “KD(IIaH)/KD(IIb)” value in experiment [4] is 564.

B3: IL6R-BP497/IL6R-L (antibody, human IgG1, kappa, name in EU numbering)
heavy: B1 heavy with A329G, M398P
light: not shown
notes: copies: 2 + 2
For the molecule B3, the “KD(IIaR)/KD(IIb)” value in experiment [1] worked out at 21. Besides, in experiment [2], the “KD(IIaR) OF PARENT POLYPEPTIDE/KD(IIaR) OF ALTERED POLYPEPTIDE” value worked out at 12.9. Besides, the “KD(IIb) OF PARENT POLYPEPTIDE/KD(IIb) OF ALTERED POLYPEPTIDE” value in experiment [3] came out at 764. Also, in experiment [4], the “KD(IIaH)/KD(IIb)” value turned out to be 236.

B4: IL6R-BP502/IL6R-L (antibody, human IgG1, kappa, name in EU numbering)
heavy: B1 heavy with Y298D, A329G, M398P
light: not shown
notes: copies: 2 + 2
For B4, in experiment [1], the “KD(IIaR)/KD(IIb)” value was 29.5. Moreover, in experiment [2], the “KD(IIaR) OF PARENT POLYPEPTIDE/KD(IIaR) OF ALTERED POLYPEPTIDE” value turned out to be 10.1. In addition, the “KD(IIb) OF PARENT POLYPEPTIDE/KD(IIb) OF ALTERED POLYPEPTIDE” value in experiment [3] came out at 810. Also, in experiment [4], the “KD(IIaH)/KD(IIb)” value came to 352.

B5: IL6R-BP499/IL6R-L (antibody, human IgG1, kappa, name in EU numbering)
heavy: B1 heavy with Y298D, M398L
light: not shown
notes: copies: 2 + 2
Regarding B5, the “KD(IIaR)/KD(IIb)” value in experiment [1] is 33.8. Moreover, the “KD(IIaR) OF PARENT POLYPEPTIDE/KD(IIaR) OF ALTERED POLYPEPTIDE” value in experiment [2] came to 22.3. Also, the “KD(IIb) OF PARENT POLYPEPTIDE/KD(IIb) OF ALTERED POLYPEPTIDE” value in experiment [3] amounted to 2120. Further, the “KD(IIaH)/KD(IIb)” value in experiment [4] worked out at 685.

B6: IL6R-BP500/IL6R-L (antibody, human IgG1, kappa, name in EU numbering)
heavy: B1 heavy with D235E, Y298D, R332A, M398P
light: not shown
notes: copies: 2 + 2
For the molecule B6, in experiment [1], the “KD(IIaR)/KD(IIb)” value turned out to be 29.9. For the same molecule, the “KD(IIaR) OF PARENT POLYPEPTIDE/KD(IIaR) OF ALTERED POLYPEPTIDE” value in experiment [2] came to 1.5. In addition, the “KD(IIb) OF PARENT POLYPEPTIDE/KD(IIb) OF ALTERED POLYPEPTIDE” value in experiment [3] came to 128. In addition, in experiment [4], the “KD(IIaH)/KD(IIb)” value was found to be 1030.

B7: IL6R-BP491/IL6R-L (antibody, human IgG1, kappa, name in EU numbering)
heavy: B1 heavy with D235E, Y298D, M398P
light: not shown
notes: also called IL6R-491/IL6R-L; copies: 2 + 2
With B7, the “KD(IIaR)/KD(IIb)” value in experiment [1] was found to be 38.8. In addition, the “KD(IIaR) OF PARENT POLYPEPTIDE/KD(IIaR) OF ALTERED POLYPEPTIDE” value in experiment [2] was determined as 9.3. Moreover, the “KD(IIb) OF PARENT POLYPEPTIDE/KD(IIb) OF ALTERED POLYPEPTIDE” value in experiment [3] came to 1020. In addition, the “KD(IIaH)/KD(IIb)” value in experiment [4] was determined as 724.

B8: IL6R-BP489/IL6R-L (antibody, human IgG1, kappa, name in EU numbering)
heavy: B1 heavy with Y298D
light: not shown
notes: copies: 2 + 2
Regarding B8, in experiment [1], the “KD(IIaR)/KD(IIb)” value was found to be 42.8. Besides, in experiment [2], the “KD(IIaR) OF PARENT POLYPEPTIDE/KD(IIaR) OF ALTERED POLYPEPTIDE” value turned out to be 25.7. In addition, the “KD(IIb) OF PARENT POLYPEPTIDE/KD(IIb) OF ALTERED POLYPEPTIDE” value in experiment [3] amounted to 3100. Besides, the “KD(IIaH)/KD(IIb)” value in experiment [4] was found to be 870.

B9: IL6R-BP492/IL6R-L (antibody, human IgG1, kappa, name in EU numbering)
heavy: B1 heavy with D235E, D239G, R332A, M398P
light: not shown
notes: copies: 2 + 2
On to B9, for which the “KD(IIaR)/KD(IIb)” value in experiment [1] was determined as 38.8. The “KD(IIaR) OF PARENT POLYPEPTIDE/KD(IIaR) OF ALTERED POLYPEPTIDE” value in experiment [2] was found to be 1.2. Further, the “KD(IIb) OF PARENT POLYPEPTIDE/KD(IIb) OF ALTERED POLYPEPTIDE” value in experiment [3] is 131. Moreover, the “KD(IIaH)/KD(IIb)” value in experiment [4] stood at 678.

B10: IL6R-BP496/IL6R-L (antibody, human IgG1, kappa, name in EU numbering)
heavy: B1 heavy with Y298D, R332A, M398P
light: not shown
notes: copies: 2 + 2
Turning to B10, the “KD(IIaR)/KD(IIb)” value in experiment [1] amounted to 25.5. Moreover, the “KD(IIaR) OF PARENT POLYPEPTIDE/KD(IIaR) OF ALTERED POLYPEPTIDE” value in experiment [2] worked out at 2.3. In addition, the “KD(IIb) OF PARENT POLYPEPTIDE/KD(IIb) OF ALTERED POLYPEPTIDE” value in experiment [3] came to 168. The “KD(IIaH)/KD(IIb)” value in experiment [4] is 201.
